Here are results for 1 substance from article doi:10.1101/169961.

In this experiment the target is Chicken skeletal muscle actin (chicken) (UniProt P68139). Nature of the experiment: TIRF microscopy.

Consider “tropomyosin AlaSer-Cdc8, labeled (natural protein)”, for which the percent of Fim1 association with F-actin prevented by Cdc8 alone is 50%.
